According to patent US20260201347A1, “ARTIFICIAL BIFUNCTIONAL ENZYME COMPRISING A MYELOPEROXIDASE ACTIVITY AND A GLUCOSE OXIDASE ACTIVITY AND APPLICATIONS THEREOF” (UNIVERSITÉ DE BORDEAUX, priority 2022, published 2026):

Columns and labels:
Format in all cases: biochemical, Rhodopirellula baltica / Penicillium amagasakiens
Conditions in all cases: fixed NaCl 20 mM, pH7.5, pH 7.5
[1] = substrate: OC[C@H]1OC(O)[C@H](O)[C@@H](O)[C@@H]1O; test: Coupled active sites, HOCl production from glucose, APF assay (Table 9), linker LEKRPEAEA
Method: (§1) Each experiment was performed in triplicate.
(§2) The activity of the two active sites was then assessed in conjunction to each other (FIG. 1).
(§3) Briefly, the aim was to measure the production of HOCl from glucose and NaCl as respective substrates of the enzymes, using the APF probe. Two types of kinetics were performed: • i) kinetics at various concentrations of glucose and a fixed concentration of NaCl, and • ii) kinetics at various concentration of NaCl and a fixed concentration of glucose.

[2] = substrate: OC[C@H]1OC(O)[C@H](O)[C@@H](O)[C@@H]1O; test: Coupled active sites, HOCl production from glucose, APF assay (Table 9), linker LEGGEAEA
Method: as §1, §2, §3

[3] = substrate: OC[C@H]1OC(O)[C@H](O)[C@@H](O)[C@@H]1O; test: Coupled active sites, HOCl production from glucose, APF assay (Table 9), linker GGGGGGGG
Method: as §1, §2, §3

B1: RbMPO-LEKRPEAEA-GOx chimera (Rhodopirellula baltica myeloperoxidase, SEQ ID NO: 10; linker SEQ ID NO: 8; Penicillium amagasakiens glucose oxidase, SEQ ID NO: … (protein)
chain: MLFWSKRTRKHPGRKRRRLRSEQLESRQLLAADFGGYRHNIYDAEDVNDDGRVSAIDALLVINAMTSETSRDENVFTDVNGDGRRSALDALRVINRIERGDVFPIDTSGDEDLNTLLPEMPSEVRSIDGSGNNPNDHLWGSVGQRLIRMAPAAYGDGISTLAGANRPSAREVSNVLSAMNTSQVLNDRGLSAFVYVWGQFIDHDLGLTESDEHGEAIDISVPEGDLWFDPMGSGEAVIPMTRTPIADGTGTSVGNPAQQFNQITAFIDGSMVYGSDAATAERLRTFAGGRLAISDNGLLPMDESGMVIAGDVRASENVGLTAIQTLFVREHNRLADEIFAADPEATDEEIYQRARLVVASLIQSITYNEFLPALLGQRAMDSYRGYDASVNPGIANEFSTAAFRLGHSTLRDEVGFMSNDGRESKDEMELKDAFFHASMLEETGIDSLLKFDASVQAQEIDLAVVDSLRNFLFGPPGAGGLDLVAMNIQRGRDHGLSDYNTTRQAYGLDRVETFDQITGDVELQQKLASLYGTVDNIDLWVGLMAEDHQHDASVGELTGLIIADQFQRTRDGDRFFYKNVLTDSEVESIERSTLADLIERNTSVDGLQENVFFMQVELRGRVILASSIPPNTMPSEVREEEIRGVSGMAIELIDASGKLVDSTVSDQHGNYRFRALSETGDYQVRLSESGEAMDVLVAHGAERIRGLDFIVLALEKRPEAEAYLPAQQIDVQSSLLSDPSKVAGKTYDYIIAGGGLTGLTVAAKLTENPKIKVLVIEKGFYESNDGAIIEDPNAYGQIFGTTVDQNYLTVPLINNRTNNIKAGKGLGGSTLINGDSWTRPDKVQIDSWEKVFGMEGWNWDNMFEYMKKAEAARTPTAAQLAAGHSFNATCHGTNGTVQSGARDNGQPWSPIMKALMNTVSALGVPVQQDFLCGHPRGVSMIMNNLDENQVRVDAARAWLLPNYQRSNLEILTGQMVGKVLFKQTASGPQAVGVNFGTNKAVNFDVFAKHEVLLAAGSAISPLILEYSGIGLKSVLDQANVTQLLDLPVGINMQDQTTTTVSSRASSAGAGQGQAVFFANFTETFGDYAPQARDLLNTKLDQWAEETVARGGFHNVTALKVQYENYRNWLLDEDVAFAELFMDTEGKINFDLWDLIPFTRGSVHILSSDPYLWQFANDPKFFLNEFDLLGQAAASKLARDLTSQGAMKEYFAGETLPGYNLVQNATLSQWSDYVLQNFRPNWHAVSSCSMMSRELGGVVDATAKVYGTQGLRVIDGSIPPTQVSSHVMTIFYGMALKVADAILDDYAKSA
notes: 6His (in the pET21a vector behind the XhoI site); made in house; host or cells: E. coli BL21Star (DE3)
- Km ([1]; other: dimer/monomer): 2160 ± 1480 µM
- kcat ([1]; other: dimer/monomer): 0.000642 s⁻¹
- kcat/Km ([1]; other: dimer/monomer): 0.298 ± 0.235 M⁻¹ s⁻¹
- Km ([1]; other: excluded): 22600 ± 6500 µM
- kcat ([1]; other: excluded): 0.000365 s⁻¹
- kcat/Km ([1]; other: excluded): 0.016 ± 0.005 M⁻¹ s⁻¹
- Km ([1]; other: trimer): 1056 ± 496 µM
- kcat ([1]; other: trimer): 0.000156 s⁻¹
- kcat/Km ([1]; other: trimer): 0.148 ± 0.081 M⁻¹ s⁻¹

B2: RbMPO-LEGGEAEA-GOx chimera (Rhodopirellula baltica myeloperoxidase, SEQ ID NO: 10; linker SEQ ID NO: 4; Penicillium amagasakiens glucose oxidase, SEQ ID NO: … (protein)
chain: MLFWSKRTRKHPGRKRRRLRSEQLESRQLLAADFGGYRHNIYDAEDVNDDGRVSAIDALLVINAMTSETSRDENVFTDVNGDGRRSALDALRVINRIERGDVFPIDTSGDEDLNTLLPEMPSEVRSIDGSGNNPNDHLWGSVGQRLIRMAPAAYGDGISTLAGANRPSAREVSNVLSAMNTSQVLNDRGLSAFVYVWGQFIDHDLGLTESDEHGEAIDISVPEGDLWFDPMGSGEAVIPMTRTPIADGTGTSVGNPAQQFNQITAFIDGSMVYGSDAATAERLRTFAGGRLAISDNGLLPMDESGMVIAGDVRASENVGLTAIQTLFVREHNRLADEIFAADPEATDEEIYQRARLVVASLIQSITYNEFLPALLGQRAMDSYRGYDASVNPGIANEFSTAAFRLGHSTLRDEVGFMSNDGRESKDEMELKDAFFHASMLEETGIDSLLKFDASVQAQEIDLAVVDSLRNFLFGPPGAGGLDLVAMNIQRGRDHGLSDYNTTRQAYGLDRVETFDQITGDVELQQKLASLYGTVDNIDLWVGLMAEDHQHDASVGELTGLIIADQFQRTRDGDRFFYKNVLTDSEVESIERSTLADLIERNTSVDGLQENVFFMQVELRGRVILASSIPPNTMPSEVREEEIRGVSGMAIELIDASGKLVDSTVSDQHGNYRFRALSETGDYQVRLSESGEAMDVLVAHGAERIRGLDFIVLALEGGEAEAYLPAQQIDVQSSLLSDPSKVAGKTYDYIIAGGGLTGLTVAAKLTENPKIKVLVIEKGFYESNDGAIIEDPNAYGQIFGTTVDQNYLTVPLINNRTNNIKAGKGLGGSTLINGDSWTRPDKVQIDSWEKVFGMEGWNWDNMFEYMKKAEAARTPTAAQLAAGHSFNATCHGTNGTVQSGARDNGQPWSPIMKALMNTVSALGVPVQQDFLCGHPRGVSMIMNNLDENQVRVDAARAWLLPNYQRSNLEILTGQMVGKVLFKQTASGPQAVGVNFGTNKAVNFDVFAKHEVLLAAGSAISPLILEYSGIGLKSVLDQANVTQLLDLPVGINMQDQTTTTVSSRASSAGAGQGQAVFFANFTETFGDYAPQARDLLNTKLDQWAEETVARGGFHNVTALKVQYENYRNWLLDEDVAFAELFMDTEGKINFDLWDLIPFTRGSVHILSSDPYLWQFANDPKFFLNEFDLLGQAAASKLARDLTSQGAMKEYFAGETLPGYNLVQNATLSQWSDYVLQNFRPNWHAVSSCSMMSRELGGVVDATAKVYGTQGLRVIDGSIPPTQVSSHVMTIFYGMALKVADAILDDYAKSA
notes: as for B1
- Km ([2]; other: dimer/monomer): 629 ± 295 µM
- kcat ([2]; other: dimer/monomer): 0.000315 s⁻¹
- kcat/Km ([2]; other: dimer/monomer): 0.5 ± 0.259 M⁻¹ s⁻¹
- Km ([2]; other: excluded): 65600 ± 14200 µM
- kcat ([2]; other: excluded): 0.00056 s⁻¹
- kcat/Km ([2]; other: excluded): 0.00853 ± 0.00215 M⁻¹ s⁻¹
- Km ([2]; other: monomer 1): 8820 ± 4870 µM
- kcat ([2]; other: monomer 1): 0.00123 s⁻¹
- kcat/Km ([2]; other: monomer 1): 0.139 ± 0.095 M⁻¹ s⁻¹
- Km ([2]; other: monomer 2): 1380 ± 671 µM
- kcat ([2]; other: monomer 2): 0.00377 s⁻¹
- kcat/Km ([2]; other: monomer 2): 2.73 ± 1.5 M⁻¹ s⁻¹

B3: RbMPO-GGGGGGGG-GOx chimera (Rhodopirellula baltica myeloperoxidase, SEQ ID NO: 10; linker SEQ ID NO: 9; Penicillium amagasakiens glucose oxidase, SEQ ID NO: … (protein)
chain: MLFWSKRTRKHPGRKRRRLRSEQLESRQLLAADFGGYRHNIYDAEDVNDDGRVSAIDALLVINAMTSETSRDENVFTDVNGDGRRSALDALRVINRIERGDVFPIDTSGDEDLNTLLPEMPSEVRSIDGSGNNPNDHLWGSVGQRLIRMAPAAYGDGISTLAGANRPSAREVSNVLSAMNTSQVLNDRGLSAFVYVWGQFIDHDLGLTESDEHGEAIDISVPEGDLWFDPMGSGEAVIPMTRTPIADGTGTSVGNPAQQFNQITAFIDGSMVYGSDAATAERLRTFAGGRLAISDNGLLPMDESGMVIAGDVRASENVGLTAIQTLFVREHNRLADEIFAADPEATDEEIYQRARLVVASLIQSITYNEFLPALLGQRAMDSYRGYDASVNPGIANEFSTAAFRLGHSTLRDEVGFMSNDGRESKDEMELKDAFFHASMLEETGIDSLLKFDASVQAQEIDLAVVDSLRNFLFGPPGAGGLDLVAMNIQRGRDHGLSDYNTTRQAYGLDRVETFDQITGDVELQQKLASLYGTVDNIDLWVGLMAEDHQHDASVGELTGLIIADQFQRTRDGDRFFYKNVLTDSEVESIERSTLADLIERNTSVDGLQENVFFMQVELRGRVILASSIPPNTMPSEVREEEIRGVSGMAIELIDASGKLVDSTVSDQHGNYRFRALSETGDYQVRLSESGEAMDVLVAHGAERIRGLDFIVLAGGGGGGGGYLPAQQIDVQSSLLSDPSKVAGKTYDYIIAGGGLTGLTVAAKLTENPKIKVLVIEKGFYESNDGAIIEDPNAYGQIFGTTVDQNYLTVPLINNRTNNIKAGKGLGGSTLINGDSWTRPDKVQIDSWEKVFGMEGWNWDNMFEYMKKAEAARTPTAAQLAAGHSFNATCHGTNGTVQSGARDNGQPWSPIMKALMNTVSALGVPVQQDFLCGHPRGVSMIMNNLDENQVRVDAARAWLLPNYQRSNLEILTGQMVGKVLFKQTASGPQAVGVNFGTNKAVNFDVFAKHEVLLAAGSAISPLILEYSGIGLKSVLDQANVTQLLDLPVGINMQDQTTTTVSSRASSAGAGQGQAVFFANFTETFGDYAPQARDLLNTKLDQWAEETVARGGFHNVTALKVQYENYRNWLLDEDVAFAELFMDTEGKINFDLWDLIPFTRGSVHILSSDPYLWQFANDPKFFLNEFDLLGQAAASKLARDLTSQGAMKEYFAGETLPGYNLVQNATLSQWSDYVLQNFRPNWHAVSSCSMMSRELGGVVDATAKVYGTQGLRVIDGSIPPTQVSSHVMTIFYGMALKVADAILDDYAKSA
notes: as for B1
- Km ([3]; other: dimer/monomer): 2060 ± 1290 µM
- kcat ([3]; other: dimer/monomer): 0.00155 s⁻¹
- kcat/Km ([3]; other: dimer/monomer): 0.754 ± 0.545 M⁻¹ s⁻¹
- Km ([3]; other: excluded): 2760 ± 1060 µM
- kcat ([3]; other: excluded): 0.000102 s⁻¹
- kcat/Km ([3]; other: excluded): 0.037 ± 0.017 M⁻¹ s⁻¹
- Km ([3]; other: monomer): 6196 ± 951 µM
- kcat ([3]; other: monomer): 0.000512 s⁻¹
- kcat/Km ([3]; other: monomer): 0.083 ± 0.015 M⁻¹ s⁻¹
- Km ([3]; other: trimer): 3610 ± 2110 µM
- kcat ([3]; other: trimer): 0.000589 s⁻¹
- kcat/Km ([3]; other: trimer): 0.163 ± 0.129 M⁻¹ s⁻¹
